Laboratory results taken from IntAct's records for PubMed 19033468.

B1: Protein kinase MCK1 (Saccharomyces cerevisiae), P21965 (parent)
chain: MSTEEQNGVPLQRGSEFIADDVTSNKSNNTRRMLVKEYRKIGRGAFGTVVQAYLTQDKKNWLGPFAIKKVPAHTEYKSRELQILRIADHPNIVKLQYFFTHLSPQDNKVYQHLAMECLPETLQIEINRYVTNKLEMPLKHIRLYTYQIARGMLYLHGLGVCHRDIKPSNVLVDPETGVLKICDFGSAKKLEHNQPSISYICSRFYRAPELIIGCTQYTTQIDIWGLGCVMGEMLIGKAIFQGQEPLLQLREIAKLLGPPDKRFIFFSNPAYDGPLFSKPLFSGSSQQRFEKYFGHSGPDGIDLLMKILVYEPQQRLSPRRILAHQFFNELRNDDTFLPRGFTEPIKLPNLFDFNDFELQILGEFADKIKPTKVAE
B2: E3 ubiquitin-protein ligase UBR1 (Saccharomyces cerevisiae), P19812 (parent)
chain: MSVADDDLGSLQGHIRRTLRSIHNLPYFRYTRGPTERADMSRALKEFIYRYLYFVISNSGENLPTLFNAHPKQKLSNPELTVFPDSLEDAVDIDKITSQQTIPFYKIDESRIGDVHKHTGRNCGRKFKIGEPLYRCHECGCDDTCVLCIHCFNPKDHVNHHVCTDICTEFTSGICDCGDEEAWNSPLHCKAEEQENDISEDPATNADIKEEDVWNDSVNIALVELVLAEVFDYFIDVFNQNIEPLPTIQKDITIKLREMTQQGKMYERAQFLNDLKYENDYMFDGTTTAKTSPSNSPEASPSLAKIDPENYTVIIYNDEYHNYSQATTALRQGVPDNVHIDLLTSRIDGEGRAMLKCSQDLSSVLGGFFAVQTNGLSATLTSWSEYLHQETCKYIILWITHCLNIPNSSFQTTFRNMMGKTLCSEYLNATECRDMTPVVEKYFSNKFDKNDPYRYIDLSILADGNQIPLGHHKILPESSTHSLSPLINDVETPTSRTYSNTRLQHILYFDNRYWKRLRKDIQNVIIPTLASSNLYKPIFCQQVVEIFNHITRSVAYMDREPQLTAIRECVVQLFTCPTNAKNIFENQSFLDIVWSIIDIFKEFCKVEGGVLIWQRVQKSNLTKSYSISFKQGLYTVETLLSKVHDPNIPLRPKEIISLLTLCKLFNGAWKIKRKEGEHVLHEDQNFISYLEYTTSIYSIIQTAEKVSEKSKDSIDSKLFLNAIRIISSFLGNRSLTYKLIYDSHEVIKFSVSHERVAFMNPLQTMLSFLIEKVSLKDAYEALEDCSDFLKISDFSLRSVVLCSQIDVGFWVRNGMSVLHQASYYKNNPELGSYSRDIHLNQLAILWERDDIPRIIYNILDRWELLDWFTGEVDYQHTVYEDKISFIIQQFIAFIYQILTERQYFKTFSSLKDRRMDQIKNSIIYNLYMKPLSYSKLLRSVPDYLTEDTTEFDEALEEVSVFVEPKGLADNGVFKLKASLYAKVDPLKLLNLENEFESSATIIKSHLAKDKDEIAKVVLIPQVSIKQLDKDALNLGAFTRNTVFAKVVYKLLQVCLDMEDSTFLNELLHLVHGIFRDDELINGKDSIPEAYLSKPICNLLLSIANAKSDVFSESIVRKADYLLEKMIMKKPNELFESLIASFGNQYVNDYKDKKLRQGVNLQETEKERKRRLAKKHQARLLAKFNNQQTKFMKEHESEFDEQDNDVDMVGEKVYESEDFTCALCQDSSSTDFFVIPAYHDHSPIFRPGNIFNPNEFMPMWDGFYNDDEKQAYIDDDVLEALKENGSCGSRKVFVSCNHHIHHNCFKRYVQKKRFSSNAFICPLCQTFSNCTLPLCQTSKANTGLSLDMFLESELSLDTLSRLFKPFTEENYRTINSIFSLMISQCQGFDKAVRKRANFSHKDVSLILSVHWANTISMLEIASRLEKPYSISFFRSREQKYKTLKNILVCIMLFTFVIGKPSMEFEPYPQQPDTVWNQNQLFQYIVRSALFSPVSLRQTVTEALTTFSRQFLRDFLQGLSDAEQVTKLYAKASKIGDVLKVSEQMLFALRTISDVRMEGLDSESIIYDLAYTFLLKSLLPTIRRCLVFIKVLHELVKDSENETLVINGHEVEEELEFEDTAEFVNKALKMITEKESLVDLLTTQESIVSHPYLENIPYEYCGIIKLIDLSKYLNTYVTQSKEIKLREERSQHMKNADNRLDFKICLTCGVKVHLRADRHEMTKHLNKNCFKPFGAFLMPNSSEVCLHLTQPPSNIFISAPYLNSHGEVGRNAMRRGDLTTLNLKRYEHLNRLWINNEIPGYISRVMGDEFRVTILSNGFLFAFNREPRPRRIPPTDEDDEDMEEGEDGFFTEGNDEMDVDDETGQAANLFGVGAEGIAGGGVRDFFQFFENFRNTLQPQGNGDDDAPQNPPPILQFLGPQFDGATIIRNTNPRNLDEDDSDDNDDSDEREIW
partner: B1 chain

Variants of: B1
Conditions: with ubr1_yeast UBR1, P19812

Variant | effect of a mutation on the interaction
D164A | disrupting interaction

Variants of: B2
Conditions: with mck1_yeast MCK1, P21965

Variant | effect of a mutation on the interaction
Y277F | disrupting interaction
